Source: patent US20230212549A1 (3B PHARMACEUTICALS, published 2023)
Numbered stars: 1 amine (or outer) side, 2 acyl side, 3 side chain; on linkers, the order of the positions; unused ones are H or OH. Bridge positions count the residues as written; N and C are the ends. Square brackets hold non-standard residues; d marks the D form. Primed or numbered codes have the meaning given here. * marks the point of attachment. tMeBn(DOTA-PP) = 1,3,5-trimethylbenzylidene, two thioethers to Cys, third CH2 bound to one N of piperazine whose other N bears DOTA, O=C(O)CN1CCN(CC(=O)O)CCN(CC(=O)N2CCN(Cc3cc(C[*:1])cc(C[*:2])c3)CC2)CCN(CC(=O)O)CC1; Ttds″ = 1,13-diamino-4,7,10-trioxatridecan-succinamic acid spacer, O=C(CCC(=O)[*:2])NCCCOCCOCCOCCCN[*:1]; TBMB(SCH2CH2NH-DOTA) = O=C(O)CN1CCN(CC(=O)O)CCN(CC(=O)NCCSCc2cc(C[*:1])cc(C[*:2])c2)CCN(CC(=O)O)CC1; Ttds = 1,13-diamino-4,7,10-trioxatridecan-succinamic acid, O=C(CCC(=O)[*:2])NCCCOCCOCCOCCCN[*:1]; DOTA = O=C(O)CN1CCN(CC(=O)O)CCN(CC(=O)*)CCN(CC(=O)O)CC1; 3Lut″ = 3,5-lutidylidene (from 3,5-lutidine); mXylylene = c1cc(C[*:1])cc(C[*:2])c1; Pentanesulfonyl = CCCCCS(=O)(=O)*; Nle = CCCC[C@H](N)C(=O)O; 2Lut = 2,6-lutidylidene; Hexanoyl = CCCCCC(=O)*

B1: Hex-[Cys(3MeBn)-Pro-Pro-Thr-Gln-Phe-Cys]-Asp-NH2 (peptide)
peptide: Hexanoyl-CPPTQFCD-NH2
modifications: linker 1-7 via mXylylene
SMILES: CCCCCC(=O)N[C@H]1CSCc2cccc(c2)CSC[C@@H](C(=O)N[C@@H](CC(=O)O)C(N)=O)NC(=O)[C@H](Cc2ccccc2)NC(=O)[C@H](CCC(N)=O)NC(=O)[C@H]([C@@H](C)O)NC(=O)[C@@H]2CCCN2C(=O)[C@@H]2CCCN2C1=O
B2: Hex-[Cys(3MeBn)-Pro-Pro-Thr-Glu-Phe-Cys]-Asp-His-Phe-Arg-Asp-Ttds-Lys(DOTA)-NH2 (peptide)
peptide: Hexanoyl-CPPTEFCDHFRD[Ttds″]K(DOTA)-NH2
modifications: linker 1-7 via mXylylene
SMILES: CCCCCC(=O)N[C@H]1CSCc2cccc(c2)CSC[C@@H](C(=O)N[C@@H](CC(=O)O)C(=O)N[C@@H](Cc2c[nH]cn2)C(=O)N[C@@H](Cc2ccccc2)C(=O)N[C@@H](CCCNC(=N)N)C(=O)N[C@@H](CC(=O)O)C(=O)NCCCOCCOCCOCCCNC(=O)CCC(=O)N[C@@H](CCCCNC(=O)CN2CCN(CC(=O)O)CCN(CC(=O)O)CCN(CC(=O)O)CC2)C(N)=O)NC(=O)[C@H](Cc2ccccc2)NC(=O)[C@H](CCC(=O)O)NC(=O)[C@H]([C@@H](C)O)NC(=O)[C@@H]2CCCN2C(=O)[C@@H]2CCCN2C1=O
B3: Ac-met-[Cys(3MeBn)-Pro-Pro-Thr-Glu-Phe-Cys]-Asp-His-Phe-Arg-Asp-NH2 (peptide)
peptide: Ac-[dM]CPPTEFCDHFRD-NH2
modifications: linker 2-8 via mXylylene
SMILES: CSCC[C@@H](NC(C)=O)C(=O)N[C@H]1CSCc2cccc(c2)CSC[C@@H](C(=O)N[C@@H](CC(=O)O)C(=O)N[C@@H](Cc2c[nH]cn2)C(=O)N[C@@H](Cc2ccccc2)C(=O)N[C@@H](CCCNC(=N)N)C(=O)N[C@@H](CC(=O)O)C(N)=O)NC(=O)[C@H](Cc2ccccc2)NC(=O)[C@H](CCC(=O)O)NC(=O)[C@H]([C@@H](C)O)NC(=O)[C@@H]2CCCN2C(=O)[C@@H]2CCCN2C1=O
notes: also called 3BP-3187
B4: Pentyl-SO2-[Cys(3MeBn)-Pro-Pro-Thr-Gln-Phe-Cys]-Asp-NH2 (peptide)
peptide: Pentanesulfonyl-CPPTQFCD-NH2
modifications: linker 1-7 via mXylylene
SMILES: CCCCCS(=O)(=O)N[C@H]1CSCc2cccc(c2)CSC[C@@H](C(=O)N[C@@H](CC(=O)O)C(N)=O)NC(=O)[C@H](Cc2ccccc2)NC(=O)[C@H](CCC(N)=O)NC(=O)[C@H]([C@@H](C)O)NC(=O)[C@@H]2CCCN2C(=O)[C@@H]2CCCN2C1=O
notes: also called 3BP-3514
B5: Hex-[Cys(tMeBn(InDOTA-AET))-Pro-Pro-Thr-Gln-Phe-AET] (peptide)
peptide: CPPTQFX
modifications: not fully specified; N-term Hex; X7 = AET (2-aminoethanethiol, no carboxyl group); Cys1/AET7 thioether-bridged by tMeBn carrying InDOTA-AET (indium complex)
notes: also called 3BP-3713
B6: DOTA-Ttds-Nle-[Cys(3MeBn)-Pro-Pro-Thr-Glu-Phe-Cys]-Asp-His-Phe-Arg-Asp-NH2 (peptide)
peptide: {DOTA}-[Ttds][Nle]CPPTEFCDHFRD-NH2
modifications: linker 3-9 via mXylylene
SMILES: CCCC[C@H](NC(=O)CCC(=O)NCCCOCCOCCOCCCNC(=O)CN1CCN(CC(=O)O)CCN(CC(=O)O)CCN(CC(=O)O)CC1)C(=O)N[C@H]1CSCc2cccc(c2)CSC[C@@H](C(=O)N[C@@H](CC(=O)O)C(=O)N[C@@H](Cc2c[nH]cn2)C(=O)N[C@@H](Cc2ccccc2)C(=O)N[C@@H](CCCNC(=N)N)C(=O)N[C@@H](CC(=O)O)C(N)=O)NC(=O)[C@H](Cc2ccccc2)NC(=O)[C@H](CCC(=O)O)NC(=O)[C@H]([C@@H](C)O)NC(=O)[C@@H]2CCCN2C(=O)[C@@H]2CCCN2C1=O
B7: Hex-[Cys(tMeBn(DOTA-AET))-Pro-Pro-Thr-Gln-Phe-Cys]-asp-NH2 (peptide)
peptide: CPPTQFCD
modifications: N-term Hex; Cys1/Cys7 thioether-bridged by tMeBn carrying DOTA-AET; D-Asp8; C-term amide
notes: also called 3BP-3681
B8: Pentyl-SO2-[Cys(tMeBn(DOTA-PP))-Pro-Pro-Thr-Gln-Phe-Cys]-Asp-NH2 (peptide)
peptide: Pentanesulfonyl-CPPTQFCD-NH2
modifications: linker 1-7 via tMeBn(DOTA-PP)
SMILES: CCCCCS(=O)(=O)N[C@H]1CSCc2cc(cc(CN3CCN(C(=O)CN4CCN(CC(=O)O)CCN(CC(=O)O)CCN(CC(=O)O)CC4)CC3)c2)CSC[C@@H](C(=O)N[C@@H](CC(=O)O)C(N)=O)NC(=O)[C@H](Cc2ccccc2)NC(=O)[C@H](CCC(N)=O)NC(=O)[C@H]([C@@H](C)O)NC(=O)[C@@H]2CCCN2C(=O)[C@@H]2CCCN2C1=O
notes: also called 3BP-3692
B9: Hex-[Cys(tMeBn(DOTA-AET))-Pro-Pro-Thr-Gln-Phe-Cys]-Asp-OH (peptide)
peptide: Hexanoyl-CPPTQFCD-OH
modifications: linker 1-7 via TBMB(SCH2CH2NH-DOTA)
SMILES: CCCCCC(=O)N[C@H]1CSCc2cc(CSCCNC(=O)CN3CCN(CC(=O)O)CCN(CC(=O)O)CCN(CC(=O)O)CC3)cc(c2)CSC[C@@H](C(=O)N[C@@H](CC(=O)O)C(=O)O)NC(=O)[C@H](Cc2ccccc2)NC(=O)[C@H](CCC(N)=O)NC(=O)[C@H]([C@@H](C)O)NC(=O)[C@@H]2CCCN2C(=O)[C@@H]2CCCN2C1=O
notes: also called 3BP-3665
B10: Ac-Met-[cys(3MeBn)-Pro-Pro-Thr-Glu-Phe-Cys]-Asp-His-Phe-Arg-Asp-NH2 (peptide)
peptide: Ac-M[dC]PPTEFCDHFRD-NH2
modifications: linker 2-8 via mXylylene
SMILES: CSCC[C@H](NC(C)=O)C(=O)N[C@@H]1CSCc2cccc(c2)CSC[C@@H](C(=O)N[C@@H](CC(=O)O)C(=O)N[C@@H](Cc2c[nH]cn2)C(=O)N[C@@H](Cc2ccccc2)C(=O)N[C@@H](CCCNC(=N)N)C(=O)N[C@@H](CC(=O)O)C(N)=O)NC(=O)[C@H](Cc2ccccc2)NC(=O)[C@H](CCC(=O)O)NC(=O)[C@H]([C@@H](C)O)NC(=O)[C@@H]2CCCN2C(=O)[C@@H]2CCCN2C1=O
notes: also called 3BP-3175
B11: Hex-[Cys(tMeBn(DOTA-AET))-Pro-Pro-Thr-Gln-Phe-Cys]-Asp-NH2 (peptide)
peptide: Hexanoyl-CPPTQFCD-NH2
modifications: linker 1-7 via TBMB(SCH2CH2NH-DOTA)
SMILES: CCCCCC(=O)N[C@H]1CSCc2cc(CSCCNC(=O)CN3CCN(CC(=O)O)CCN(CC(=O)O)CCN(CC(=O)O)CC3)cc(c2)CSC[C@@H](C(=O)N[C@@H](CC(=O)O)C(N)=O)NC(=O)[C@H](Cc2ccccc2)NC(=O)[C@H](CCC(N)=O)NC(=O)[C@H]([C@@H](C)O)NC(=O)[C@@H]2CCCN2C(=O)[C@@H]2CCCN2C1=O
notes: also called 3BP-3426
B12: DOTA-Ttds-Met-[Cys(3MeBn)-Pro-Pro-Thr-Glu-Phe-Cys]-Asp-His-Phe-Arg-Asp-NH2 (peptide)
peptide: {DOTA}-[Ttds]MCPPTEFCDHFRD-NH2
modifications: linker 3-9 via mXylylene
SMILES: CSCC[C@H](NC(=O)CCC(=O)NCCCOCCOCCOCCCNC(=O)CN1CCN(CC(=O)O)CCN(CC(=O)O)CCN(CC(=O)O)CC1)C(=O)N[C@H]1CSCc2cccc(c2)CSC[C@@H](C(=O)N[C@@H](CC(=O)O)C(=O)N[C@@H](Cc2c[nH]cn2)C(=O)N[C@@H](Cc2ccccc2)C(=O)N[C@@H](CCCNC(=N)N)C(=O)N[C@@H](CC(=O)O)C(N)=O)NC(=O)[C@H](Cc2ccccc2)NC(=O)[C@H](CCC(=O)O)NC(=O)[C@H]([C@@H](C)O)NC(=O)[C@@H]2CCCN2C(=O)[C@@H]2CCCN2C1=O
B13: DOTA-Ttds-Leu-[Cys(3MeBn)-Pro-Pro-Thr-Glu-Phe-Cys]-Asp-His-Phe-Arg-Asp-NH2 (peptide)
peptide: {DOTA}-[Ttds″]LCPPTEFCDHFRD-NH2
modifications: linker 3-9 via mXylylene
SMILES: CC(C)C[C@H](NC(=O)CCC(=O)NCCCOCCOCCOCCCNC(=O)CN1CCN(CC(=O)O)CCN(CC(=O)O)CCN(CC(=O)O)CC1)C(=O)N[C@H]1CSCc2cccc(c2)CSC[C@@H](C(=O)N[C@@H](CC(=O)O)C(=O)N[C@@H](Cc2c[nH]cn2)C(=O)N[C@@H](Cc2ccccc2)C(=O)N[C@@H](CCCNC(=N)N)C(=O)N[C@@H](CC(=O)O)C(N)=O)NC(=O)[C@H](Cc2ccccc2)NC(=O)[C@H](CCC(=O)O)NC(=O)[C@H]([C@@H](C)O)NC(=O)[C@@H]2CCCN2C(=O)[C@@H]2CCCN2C1=O
notes: also called 3BP-3172

What was measured:
[1] = target: Recombinant human FAP (R&D systems, #3715-SE) (human, UniProt Q12884 26-760); assay: cell-based or functional assay
[2] = target: T1, fibroblast activation protein (FAP) on FAP-expressing human WI-38 fibroblasts (human, UniProt Q12884 1-760); assay: competitive FACS, WI-38 cells, vs Cy5 tracer m3; A = pIC50 >8.0
T1 construct: also called human FAP

Binder	pIC50 Category (Activity) [1]	pIC50 Category (FACS) [2]
B1	> 8 pIC50	> 8 pIC50
B2	> 8 pIC50	> 8 pIC50
Hexanoyl-CPPTQFCD-NH2 (linker 1-7 via tMeBn(LuDOTA-PP); also: lutetium complex of DOTA, also called 3BP-3591) [Hex-[Cys(tMeBn(LuDOTA-PP))-Pro-Pro-Thr-Gln-Phe-Cys]-Asp-NH2]	> 8 pIC50	> 8 pIC50
Hexanoyl-CPPTQFCD-NH2 (linker 1-7 via tMeBn(InDOTA-PP); also: indium complex of DOTA, also called 3BP-3590) [Hex-[Cys(tMeBn(InDOTA-PP))-Pro-Pro-Thr-Gln-Phe-Cys]-Asp-NH2]	> 8 pIC50	> 8 pIC50
B3	> 8 pIC50	> 8 pIC50
B4	> 8 pIC50	> 8 pIC50
B5	> 8 pIC50	> 8 pIC50
Hexanoyl-CPPTQFCD-NH2 (linker 1-7 via tMeBn(GaDOTA-PP); also: gallium complex of DOTA, also called 3BP-3592) [Hex-[Cys(tMeBn(GaDOTA-PP))-Pro-Pro-Thr-Gln-Phe-Cys]-Asp-NH2]	> 8 pIC50	> 8 pIC50
Hexanoyl-CPPTQFCD-NH2 (linker 1-7 via tMeBn(EuDOTA-PP); also: europium complex of DOTA, also called 3BP-3661) [Hex-[Cys(tMeBn(EuDOTA-PP))-Pro-Pro-Thr-Gln-Phe-Cys]-Asp-NH2]	> 8 pIC50	> 8 pIC50
Hexanoyl-CPPTQFCD-NH2 (linker 1-7 via 2Lut, also called 3BP-3518) [Hex-[Cys(2Lut)-Pro-Pro-Thr-Gln-Phe-Cys]-Asp-NH2]	> 8 pIC50	> 8 pIC50
B6	> 8 pIC50	> 8 pIC50
B7	> 8 pIC50	> 8 pIC50
B8	> 8 pIC50	> 8 pIC50
B9	> 8 pIC50	> 8 pIC50
B10	> 8 pIC50	> 8 pIC50
B11	> 8 pIC50	> 8 pIC50
Hexanoyl-CPPTQFCD-NH2 (linker 1-7 via 3Lut″, also called 3BP-3519) [Hex-[Cys(3Lut)-Pro-Pro-Thr-Gln-Phe-Cys]-Asp-NH2]	> 8 pIC50	> 8 pIC50
B12	> 8 pIC50	> 8 pIC50
B13	> 8 pIC50	> 8 pIC50
